The target of data set [1] is T1, TR4 orphan receptor (NR2C2) (Homo sapiens) (UniProt P49116).
T1 sequence: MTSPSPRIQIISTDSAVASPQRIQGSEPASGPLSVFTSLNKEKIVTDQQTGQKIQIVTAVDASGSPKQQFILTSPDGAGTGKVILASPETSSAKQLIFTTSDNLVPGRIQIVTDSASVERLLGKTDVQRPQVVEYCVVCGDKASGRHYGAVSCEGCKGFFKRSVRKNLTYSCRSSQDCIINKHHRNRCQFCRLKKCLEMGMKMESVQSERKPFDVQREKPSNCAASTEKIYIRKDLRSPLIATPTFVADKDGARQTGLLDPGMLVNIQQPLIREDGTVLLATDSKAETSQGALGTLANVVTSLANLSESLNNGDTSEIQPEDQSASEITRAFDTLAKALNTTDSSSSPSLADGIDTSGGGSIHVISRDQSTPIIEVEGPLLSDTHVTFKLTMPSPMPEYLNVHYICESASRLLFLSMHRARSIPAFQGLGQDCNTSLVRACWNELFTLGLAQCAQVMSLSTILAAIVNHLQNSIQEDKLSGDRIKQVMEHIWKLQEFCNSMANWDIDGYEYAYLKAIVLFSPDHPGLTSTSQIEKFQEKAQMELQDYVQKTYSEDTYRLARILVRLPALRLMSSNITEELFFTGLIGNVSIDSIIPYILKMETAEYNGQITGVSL
Briefly: competition. The conditions noted are these: competitive EMSA.

The target in data set [2] is T2, TR2 orphan receptor (TR2-11, NR2C1) (Homo sapiens, UniProt P13056 SEQ:1-603).
T2 chain: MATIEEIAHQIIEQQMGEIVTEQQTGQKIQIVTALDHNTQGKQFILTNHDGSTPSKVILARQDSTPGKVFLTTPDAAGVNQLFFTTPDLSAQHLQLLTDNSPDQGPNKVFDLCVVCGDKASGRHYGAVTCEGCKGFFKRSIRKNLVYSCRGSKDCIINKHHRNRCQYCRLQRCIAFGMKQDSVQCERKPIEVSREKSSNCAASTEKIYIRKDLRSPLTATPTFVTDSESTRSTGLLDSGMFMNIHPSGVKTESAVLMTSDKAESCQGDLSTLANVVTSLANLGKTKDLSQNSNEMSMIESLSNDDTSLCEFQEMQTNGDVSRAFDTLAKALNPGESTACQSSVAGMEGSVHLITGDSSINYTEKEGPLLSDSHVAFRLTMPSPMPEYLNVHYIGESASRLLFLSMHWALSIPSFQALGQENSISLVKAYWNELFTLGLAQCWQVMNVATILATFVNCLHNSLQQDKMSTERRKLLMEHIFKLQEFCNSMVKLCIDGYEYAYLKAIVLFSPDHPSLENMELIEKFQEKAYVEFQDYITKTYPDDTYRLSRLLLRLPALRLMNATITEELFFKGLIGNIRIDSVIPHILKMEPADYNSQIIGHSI
Briefly: EMSA; competed by excess unlabeled oligo; supershift with anti-TR2 G204. The conditions noted are these: tags: none stated, pSG5-hTR2-11, TNT rabbit reticulocyte lysate; label: 32P. The protocol:
EMSA analysis was performed as described previously (Lee, H. J., and Chang, C. (1995) J. Biol. Chem. 270, 5434-5440). […] For competition reactions, unlabeled HPV-16 DR4RE oligonucleotides were mixed with labeled probe prior to its addition to the reaction. Antibody shift analysis involved the addition of 1 μl of the monoclonal anti-TR2 orphan receptor antibody, G204, to the reaction for 15 min., at room temperature, prior to gel loading.
The site consists of two consensus A(G/T)(G/T)TCA half sites with a spacing of 4 nucleotides (ATGTCAccctAGTTCA). To determine whether TR2 was able to bind the HPV-16 DR4RE, gel shift analysis was performed. […] Also in FIG. 3A, a mock in vitro transcription/translation reaction was used in lane 3, and lane 4 contains ³²P-labeled HPV-16 DR4RE alone. To further confirm the binding specificity of TR2 for the HPV-16 DR4RE, a TR2-specific monoclonal antibody was added, resulting in an upward shift of the labeled complex (FIG. 3B).

Data set [3] deals with T2, TR2 orphan receptor (TR2-11, NR2C1). Briefly: EMSA; Scatchard; 25 mM Tris pH 8.0, 50 mM KCl, poly(dI.dC). The conditions noted are these: tags: none stated, pSG5-hTR2-11, TNT rabbit reticulocyte lysate; label: 32P. The protocol:
Electrophoretic mobility shift assay analysis was performed as previously described (Jiang, C. K. et al. (1991) J Invest Dermatol 97, 969-973). The oligonucleotides were 5′ end labeled with γ-³²P ATP (specific activity=6000 Ci/mmole) (New England Nuclear) by T4 polynucleotide kinase. The specific activity reached 2-8×10⁸ cpm/μg. Labeled oligonucleotides (0.1 ng) were incubated with in vitro translated proteins, in the presence or absence of unlabeled oligonucleotide competitor or rabbit antiserum against TR2 (Cooney, A. J. et al. (1993) J Biol Chem 268, 4152-4160), for 15 min at room temperature. The binding buffer contained 25 mM Tris-HCl (pH 8.0), 10% glycerol, 50 mM KCl, 2 mM EDTA, 0.05% TritonX-100, 5 mM DTT, 1% β-mercaptoethanol, 5 ng/ml bovine serum albumin, 1.5 units/ml aprotinin, and 1 μg poly(dI.dC) (Pharmacia). […] The radioactive gels were analyzed by PhosphorImager (Molecular Dynamics). […]
To clarify the potential mechanism for the differential regulation of PPARα signal pathway by TR2 and TR4, the Kds (equilibrium dissociation constants) for TR2 and TR4 binding to PPRE were calculated using Scatchard analysis. […] The Kd values calculated here were consistent with the range of Kd values for nuclear receptors and their hormone response elements.
Background: In EMSA bound probe runs differently from free probe, usually more slowly.

In turn, DR6 synthetic yielded an IC50 in data set [1] (range end assigned by order DR6>DR5>DR1>DR3>DR2>DR4) of 0.08 ng.
The molecule DR4 synthetic returned an IC50 in data set [1] (range end assigned by order, weakest synthetic DR) of 0.24 ng.
ERE (palindrome) gave an IC50 in data set [1] (weakest natural element, bound poorly, range end assigned by order) of 85 ng.
In data set [1] (best of natural elements), CRBPII (DR1) had an IC50 of 0.023 ng.

B1: HPV-16 DR4RE (dsDNA)
DNA 1: ATGTCACCCTAGTTCA
DNA 2: TGAACTAGGGTGACAT
As for B1, the binding result in data set [2] is listed as “binds”.

B2: PPRE (rat acyl-CoA oxidase) (dsDNA)
DNA 1: GTCGACAGGGGACCAGGACAAAGGTCACGTTCGGGAGTCGAC
DNA 2: GTCGACTCCCGAACGTGACCTTTGTCCTGGTCCCCTGTCGAC
On to B2, for which the dissociation constant (Kd) (commonly a measure of binding affinity in units of concentration) in data set [3] is 1.23 nM.

These data come from patent US20060063727, “Tr4/tr2 response elements” (published 2006).
